In US20100075326A1:
Like-named read-outs stand apart in the source and are kept apart here.

Columns and labels:
[1] = biological target: T1, base coil K4 (four heptad repeats), YS2H bait fused to Aga2 with C-terminal FLAG tag (yeast)
[2] = biological target: T1, base coil K4 (four heptad repeats), …; experiment: predicted from YS2H (flow cytometry of Myc and FLAG tags, Langmuir equation)
[3] = biological target: T2, base coil K3 (three heptad repeats), YS2H bait fused to Aga2 with C-terminal FLAG tag (yeast)
[4] = biological target: T3, base coil K5 (five heptad repeats), YS2H bait fused to Aga2 with C-terminal FLAG tag (yeast)
[5] = biological target: T2, base coil K3 (three heptad repeats), …; experiment: predicted from YS2H (flow cytometry of Myc and FLAG tags, Langmuir equation)
[6] = biological target: T3, base coil K5 (five heptad repeats), …; experiment: as above
[7] = biological target: T2, base coil K3 (three heptad repeats), …; experiment: YS2H, Kn-Flag : En-Myc: bait on the yeast surface as Aga2 fusion, secreted prey captured by it; flow cytometry with anti-Myc antibody, MFI of the whole induced population; Flag (bait) MFI of this clone 70; K3-only control Myc MFI 8
[8] = biological target: NeGFP (partner of the row 'E3' in Figure 2d, base coil deleted, cytosolic)
[9] = biological target: T2, base coil K3 (three heptad repeats), …; remark: listed apart in the source
[10] = biological target: T2, base coil K3 (three heptad repeats), …; remark: listed apart in the source

B1: acid coil E4 (four heptad repeats), secreted YS2H prey with C-terminal Myc tag (peptide)
peptide: VSALEKEVSALEKEVSALEKEVSALEKEEQKLISEEDL
modifications: not checked
MFI (anti-Myc) [1]: 68 | Kd [2]: 0.151 µM

B2: acid coil E5 (five heptad repeats), secreted YS2H prey with C-terminal Myc tag (peptide)
peptide: VSALEKEVSALEKEVSALEKEVSALEKEVSALEKEEQKLISEEDL
modifications: not checked
MFI (anti-Myc) [1]: 653 | MFI (anti-Myc) [3]: 10 | MFI (anti-Myc) [4]: 1200 | Kd [2]: 0.0183 µM | Kd [5]: 1.29 µM | Kd [6]: 0.00049 µM

B3: acid coil E3 (three heptad repeats), secreted YS2H prey with C-terminal Myc tag (peptide)
peptide: VSALEKEVSALEKEVSALEKEEQKLISEEDL
modifications: not checked
MFI (anti-Myc) [7]: 8 | MFI of complemented split eGFP in the cytosol, control row 'E3' (NeGFP with the base coil deleted : E3-CeGFP) [8]: 7 | MFI of complemented split eGFP in the cytosol (K3-NeGFP : E3-CeGFP, no signal sequences) [9]: 216 | Kd [5]: 1.27 µM | MFI of complemented split eGFP, secretory pathway (K3-NeGFP-Flag : E3-CeGFP-Myc); Flag MFI 67 [10]: 20
